Measurements as given in paper PMC6435465.

Key:
[1] = biological target: YabJ from Staphylococcus aureus Mu50 (SAV0497), native recombinant (Staphylococcus aureus Mu50); assay: SEC; size-exclusion chromatography of native and chemically treated SAYabJ; excess HOCl, DTT and H2O2 removed by dialysis beforehand; Superdex 75 (10/300 GL), 50 mM Tris/HCl pH 7.5, 200 mM NaCl named for the purification
[2] = biological target: YabJ from Staphylococcus aureus Mu50 (SAV0497), native recombinant (Staphylococcus aureus Mu50); assay: SDS/PAGE; 12% polyacrylamide gel, samples treated with 1% SDS and 5% 2-mercaptoethanol at 100°C for 5 min; trimer band at 50 kDa, monomer band at 16 kDa
[3] = biological target: YabJ from Staphylococcus aureus Mu50 (SAV0497), native recombinant (Staphylococcus aureus Mu50); assay: crystal structure; 1.75 Å, space group P2(1), six molecules per asymmetric unit; crystals from 25% PEG3350, 100 mM Tris/HCl pH 8.5, 293 K; interfaces calculated with PISA
[4] = biological target: chlorinated and reduced SAYabJ (HOCl-treated, then DTT-reduced YabJ from S. aureus Mu50) (Staphylococcus aureus Mu50); assay: SDS/PAGE; 12% polyacrylamide gel, samples treated with 1% SDS and 5% 2-mercaptoethanol at 100°C for 5 min; trimer band at 50 kDa, monomer band at 16 kDa

Substance	stoichiometry N [1]	stoichiometry N [2]	stoichiometry N [3]	stoichiometry N [4]
YabJ from Staphylococcus aureus Mu50 (SAV0497), native recombinant (natural protein)	3	3	3	–
chlorinated and reduced SAYabJ (HOCl-treated, then DTT-reduced YabJ from S. aureus Mu50) (natural protein)	–	–	–	3
